Reference: publication PMC8906540 (RNA, 2022)

Biological target: the molecule itself
Assay: SEC

B1: YloC protein of Bacillus subtilis, purified, 8×His-Sumo tag removed (enzyme, UniProt O34441 1-291, looked up)
chain: MIRSMTGFGSASKTQDDLSVSVELKSVNYRFKEVNARLPRPLLYFEDKLKQTILQHIQRGRIELFVSVDSDMLVEKRLEIDWPLLDEFVAAARDMKKRYQLSAEPDVMDFFKLDHVVQVHEEQTQNDKLEALIIDAAEEAVKGLCEMREKEGLLLAKDCLMHIDQLEELVRETELLAADVVSRYRERLYARIKEWTEDVLDESRLVTECAIFADRSDITEEITRLKSHFAQFRDILASGGAVGRKLDFLVQELNREANTIGSKANDHQITKLVVEMKSSIEKIKEQVQNIE
  stoichiometry N: ~6
